In the DeepSol protein solubility set:

Experiment: soluble on expression in E. coli; label from the status in PepcDB or PDB records
In the case of “PFKEVSPNSFLLDDSHALSQLLKKSYRWYSPVFSPRNVPRFADVSSITESPETLKAIRDFLVQRYRAMSPAPTHILGFDARGFLFGPMIAVELEIPFVLMRKADKNAGLLIRSEPYEKEYKEAAPEVMTIRYGSIGKGSRVVLIDDVLATGGTALSGLQLVEASDAVVVEMVSILSIPFLKAAEKIHSTANSRYKDIKFISLLSDDALTEENCGDSKNYTGPRVLSCGDVLAEHPH”, the “soluble on expression in E. coli” value is reported as “soluble”. In the case of “PHMSGLKKFFPYSTNVLKGAAADIALPSLAGKTVFFYFSASWCPPCRAFTPQLIDFYKAHAESKNFEVMLISWDESAEDFKDYYAKMPWLALPFEDRKGMEFLTTGFDVKSIPTLVGVEADSGNIITTQARTMVVKDPEAKDFPWPNVEAKK”, the “soluble on expression in E. coli” value is reported as “soluble”. In the case of “PIGKSADNMYSYLALVQDDPTVQVVNMAQKAYVEHYIQGDPDLAKLPVLSAAAPFKVGGRKNDPASFVEVEKGQLTFRNAADLYLYPNTLVVMKVSGKEVKEWLECSAGQFNQIDPASSKPQSLINWDGFRTYNFDVIDGVNYQIDVTQPARYDGECQMIHPQAERIKHLTFNGKPVDPQATFLVATNNYRAYGGKFAGTGESHIAFASPDENRSVLAAWIGAQSKKEGAIHPAADNNWRLAPI”, the “soluble on expression in E. coli” value is reported as “not soluble”. In the case of “PITNGHLDLIERAAQMFDEVIIAVAASPSKNTLFTLEERVEFARQVTSHLDNVSAKGFSGLLVDFAKAEKANVLIRGLRTTVDFEYEFGLTNMYRRLMPGLESVFLTPAEEHAFISSTLVREVAIHGGNVDEFVPAIVANALHQKKKI”, the “soluble on expression in E. coli” value is reported as “not soluble”. With “PKHGKRYRALLEKVDPNKIYTIDEAAHLVKELATAKFDETVEVHAKLGIDPRRSDQNVRGTVSLPHGLGKQVRVLAIAKGEKIKEAEEAGADYVGGEEIIQKILDGWMDFDAVVATPDVMGAVGSKLGRILGPRGLLPNPKAGTVGFNIGEIIREIKAGRIEFRNDKTGAIHAPVGKASFPPEKLADNIRAFIRALEAHKPEGAKGTFLRSVYVTTTMGPSVRINPHS” the “soluble on expression in E. coli” value was “soluble”. In the case of “PKPPIDLVVTETTATSVTLTWDSGNSEPVTYYGIQYRAAGTEGPFQEVDGVATTRYSIGGLSPFSEYAFRVLAVNSIGRGPPSEAVRARTGEQ”, the “soluble on expression in E. coli” value is reported as “soluble”. With “PLYLGLMSGTSIDGIDAALVRINANPITHCELIAAQTSAWDPNLRTTLLELSQGQNTASLDQLGWLDAQVGLAFATAANTLIAKTGIKHTQIRAIGSHGQTIRHRPHGDLPFTWQLGDAHRIAELTGITTVADFRRRDVAAGGQGAPLMPAFHLAILGSANENRAVLNLGGIANLTLIPMTGPVLGFDTGPANALLDSWYQRHHHETFDQSGNFAASGKINQKLLACLLDDPWFTLPPPKSTGREQFHLDWMTKQLEPTPPSPADVQATLLELTAVTVADALLRQQPKTTRLLICGGGAHNPVLMARLATHLPNVTVESIQTYGLNPDYLEAMGFAWLAAQTLDGQPSNLPSVTGARGLRLLGAIHPA” the “soluble on expression in E. coli” value was “not soluble”. For “PMILGYWNVRGLTHPIRLLLEYTDSSYEEKRYAMGDAPDYDRSQWLNEKFKLGLDFPNLPYLIDGSRKITQSNAIMRYLARKHHLCGETEEERIRADIVENQVMDNRMQLIMLCFNPDFEKQKPEFLKTIPEKMKLYSEFLGKRPWFAGDKVTYVDFLAYDILDQYHIFEPKCLDAFPNLKDFLARFEGLKKISAYMKSSRYLSTPIFSKLAQWSNK”, the “soluble on expression in E. coli” value was “soluble”. For “PNLTEISKKITESNAVVLAVKEVETLLASIDELATKAIGKKIGNNGLEANQSKNTSLLSGAYAISDLIAEKLNVLKNEELKEKIDTAKQCSTEFTNKLKSEHAVLGLDNLTDDNAQRAILKKHANKDKGAAELEKLFKAVENLSKAAQDTLKNAVKELTSPIVA”, the “soluble on expression in E. coli” value was “soluble”. With “PPKWKVKKQKLAEKAAREAELTAKKAQARQALSIYLNLPTLDEAVNTLKPWWPGLFDGDTPRLLACGIRDVLLEDVAQRNIPLSHKKLRRAMKAITRSESYLCAMKAGACRYDTEGYVTEHISQEEEVYAAERLDKIRRQNRIKAELQAVLD” the “soluble on expression in E. coli” value was “soluble”. For “PQMKTLETRSCILRPASLDDVEDFFDCYKNKIVVKHLPFSEHKSLEDTRKFIKSFFLNPYKKGKIGHFAIVYKRDNKVIGNMGFNNINPKALEAEIGICINPSYWGHDFATEITKRVIQYGFRELNLNKIIAITYEENQNSTKSLDLLGFKCTGKYIKKIHTGNTVKNVPCYQYELKKQ”, the “soluble on expression in E. coli” value was “not soluble”. For “PRTVKELTVSAGDNLIITLPDNEVELKAFVAPAPPVETTYNYEWNLISHPTDYQGEIKQGHKQTLNLSQLSVGLYVFKVTVSSENAFGEGFVNVTVKPAR”, the “soluble on expression in E. coli” value was “soluble”. With “PSEHLEHLFQYIVNDDKTYMKKLVSGHGIVDPTNPYEEFKLTKLQAAIQRKIGYTFDPKSERLLPPTLTELEKGNAVLAHHLIQSFSPEDDLTPEKIHEIGYNTVMELTGGEYEFVIATHVDKEHLHNHIIFSSTNLKTGKAFRWQKGTKKVFEQISDKIAAKEGAKIIEKSPKQTHTKYTKWQTESIYKQKIKSRLDFLLEQSSSINDFLEKAEALNLSADFSNKWTTYRLLDEPQIKNTRSRSLSKSDPTRYNYEKIIERLKENKNVL” the “soluble on expression in E. coli” value was “not soluble”. In the case of “PSVQVPQSTILYASDGSKLGETNYGEKRYWVPLKDMNPTIVKATVAIEDQNFYDHHGFDYKRMAGAALADLKAFAKVQGASTITQQYARNLYLEHDKTWKRKWNEAFYTIRLEQNYSKDEILEGYLNTIYYGHGAYGIEAASRLYFGKHAKNLTDAEAALLAGIPKGPSGY”, the “soluble on expression in E. coli” value is reported as “not soluble”. With “PTGNNAEICLLPLDYGPCRALLLRYYYDRYTQSCRQFLYGGCEGNANNFYTWEACDDACWRIE” the “soluble on expression in E. coli” value was “soluble”. For “QDWLTFQKKHITNTRDVDCDNIMSTNLFHCKDKNTFIYSRPEPVKAICKGIIASKNVLTTSEFYLSDCNVTSRPCKYKLKKSTNKFCVNCANQAPVHFVGVGSC”, the “soluble on expression in E. coli” value was “soluble”. In the case of “QEARTGNDIAQLPAISVTGREISDLTEGTNAYTTEAMSTATGLTLSPRETPQSVSVVTRQQIEDQGLTDTGAILATAPGISVTRSDSNRYSFSARGFTIDNFQFDGLVSPILSQWNYGSTDMDAAIYDHVEIVRGATGLMTGSGNPSAAVNFVRKRPLREFAATFNASVGSWDYVRGDADISVPITEDGRIRSRLVAAYSQGDSYVHFLDTRRRTFYGVVSADLTPDTVLTTSVEYQHNHSNGFGSGFPLFYSDGSRTDFNRSVANNAPWARQDTEATTYFVDLTHRFTNDWKLRAAYSHTDGRYLMKHVYRGGYPDRHTGIIAAPPAFSNYDGNLDRDDIHFSLSAPFEAFGLRHEVALGWMSIDNHSDIQRYAMVGPAPAIGSFFDWRRAGSHHHHHHHIQEPSWADTLSPADDVRTKQTGAYLVGRFALAEPLHLIVGDRWSDWKTKQMYFGSRREYRIKNQFTPYAGLTYDINDTYTAYASYTEIFQPQNARDTSGGILPPIKSKSYELGLKAAYLEGRLNTSAALFQTRQDNLAQVIPGSSIPGFPNMQASRAASGAKVEGIDLEASGQILPDWNIGASYTHFTTKDASGNPINTNHPRSLFKLYTTYRLPGALHRLTVGGGVDWQSRMYQAAASPRGNVEVEQDSYALVSLMARFDFNKKLSATLNVNNLFDKKYYDQIGFYSQGWWGAPRNVMLNLRAQY”, the “soluble on expression in E. coli” value is reported as “soluble”. In the case of “QEPFHVVTPLLESWALSQVAGMPVFLKCENVQPSGSFKIRGIGHFCQEMAKKGCRHLVCSSGGNAGIAAAYAARKLGIPATIVLPESTSLQVVQRLQGEGAEVQLTGKVWDEANLRAQELAKRDGWENVPPFDHPLIWKGHASLVQELKAVLRTPPGALVLAVGGGGLLAGVVAGLLEVGWQHVPIIAMETHGAHCFNAAITAGKLVTLPDITSVAKSLGAKTVAARALECMQVCKIHSEVVEDTEAVSAVQQLLDDERMLVEPACGAALAAIYSGLLRRLQAEGCLPPSLTSVVVIVCGGNNINSRELQALKTHLGQ”, the “soluble on expression in E. coli” value is reported as “soluble”. For “QIIKDVVVWKTSLQDSDTPEKTLVFTATIKPGWHLYDQNLPEDGPTSTEFLFDKMTGAKLVGKAIPDKAPVNRYDKQFEMDLRWYEKTVSFRQKIQVTDPAKFSIKGGVRFMACNDENCLPPETSDFSFDASMIKSKAAAPDTEAEAAEAVAAETAADTTSQTDAAEALSSKADLWTPVVSELRAYGDDTLKQAESAPWKIFLYG”, the “soluble on expression in E. coli” value was “not soluble”. In the case of “QKGRVETRRVVHIMDFQRGKNLRYQLLQLVEPFGVISNHLILNKINEAFIEMATTEDAQAAVDYYTTTPALVFGKPVRVHLSQKYKRIK”, the “soluble on expression in E. coli” value is reported as “soluble”. For “QKKVNVTGAVGMVSAEALEARPVANASQALQGVVPGLNLTVGNNGGALDGTLNMNIRGAGTIGDGSGSSPLVLIDGIEGDLNTVNPNDIESVSVLKDAASASIYGARASFGVILVTTKSGKSG”, the “soluble on expression in E. coli” value was “not soluble”. For “QNLGAAVAILGGPGTVQGVVRFLQLTPERCLIEGTIDGLEPGLHGLHVHQYGDLTNNCNSCGNHFNPDGASHGGPQDSDRHRGDLGNVRADADGRAIFRMEDEQLKVWDVIGRSLIIDEGEDDLGRGGHPLSKITGNSGERLACGIIARSAGLF”, the “soluble on expression in E. coli” value was “soluble”. For “QPSLLDRLVDDEPWRRSEAPEAALLTHAGLRAAVLRDLRWLLNTVNLASSQDLAPYRHVPASSVNFGVRAMAGRRMSEIDWVDVETSIRDAIAAFEPRILESSVEVRCVSDTRTLEHHNVLSLEIRGMLWCVPHPREFLFRTDIDLE”, the “soluble on expression in E. coli” value was “not soluble”. With “QRDIPVQFIVAGVKRSDLRNLVEERIRKEGTKTREIRYREIGHYNGSVENIHLSVDKYEAAGGTEYFISYVTDDDHIVGFVRLRQPSEMAHRQEMLGSAIVRELKVFGQEVPVGRRDLKNWQHHGYGMRLMEEAERIARDDLGLDRILVISGIGVRQYFRKIGYEDLGPYVAKSLK” the “soluble on expression in E. coli” value was “not soluble”. For “QRHADLIAARAGRPVTITAVCARDRSKNRDADLSGYAWETDAVALAQRADIDVFVEVMGGSEGAARASTEAALAAGKDVVTANKALLAHHGQALAEMAEAAGLAIRFEAAVAGGIPVIKALTEGLAGNQMRRVMGVMNGTCNYILTR”, the “soluble on expression in E. coli” value was “not soluble”. In the case of “QRKNNNKRWYFTREQLENSPSRRFGLDPDKELSYRQQAANLLQDMGQRLNVSQLTINTAIVYMHRFYMIQSFTRFHRNSVAPAALFLAAKVEEQPKKLEHVIKVAHTCLHPQESLPDTRSEAYLQQVQDLVILESIILQTLGFELTIDHPHTHVVKCTQLVRASKDLAQTSYFMATNSLHLTTFSLQYTPPVVACVCIHLACKWSNWEIPVSTDGKHWWEYVDATVTLELLDELTHEFLQILEKTPNRLKRIWNWRACQAAKKT”, the “soluble on expression in E. coli” value is reported as “soluble”. In the case of “QSRGEKRTAHNAIEKRYRSSINDKIIELKDLVVGTEAKLNKSAVLRKAIDYIRFLQHSNQKLKQENLSLRTAVHKSKSLKDL”, the “soluble on expression in E. coli” value is reported as “soluble”.
